The results in this text go back to patent EP4628505A1 (Genor Biopharma Co., Ltd., dated 2025).

Assay [1] addresses T1, mouse CTLA4 (Acro Biosystem, Catlog #CT4-M52H5) (mouse, UniProt P09793 36-161).
T1 construct: Bought protein
Put plainly: ELISA, plate coated with 1 ug/ml mouse CTLA4. Background: An ELISA detects its analyte on a solid surface through an enzyme-linked reagent.

In assay [2] the target is T2, recombinant human CTLA-4 (human, UniProt P16410 36-161, limits assumed).
T2 construct: also called CTLA4 antigen
T2 sequence (looked up): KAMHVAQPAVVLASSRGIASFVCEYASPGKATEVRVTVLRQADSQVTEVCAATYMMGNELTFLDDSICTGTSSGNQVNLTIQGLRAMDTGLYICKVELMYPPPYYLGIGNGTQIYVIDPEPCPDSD
Put plainly: Octet (BLI), 1:1 binding model. A general note: In BLI a coated tip is dipped into the sample, and binding shifts an interference pattern.

B1: GBD008-S019 (antibody, V domains shown)
VH: QVQLVESGGGLVQPGGSLTLSCAASGFTFSSYTMAWYRQAPGKEREVVAGISRSGGTTNYGDSVKGRFTISRDNAKNTVYLQMNSLKPEDTAVYYCRAVSDYWGQGTQVTVSS
notes: Heavy chain-only antibody (VHH-Fc), no light chain; also called GBD008-5019
B1: the binding result in assay [1] is reported as “no binding”. For the same molecule, in assay [2], the Kd – broadly, the equilibrium constant for the complex coming apart – was found to be 0.165 nM; the koff (as a rule, the rate constant with which the complex falls apart) is 4.35e-05 s⁻¹; the kon – broadly, the rate constant with which the complex forms – was determined as 263000 M⁻¹ s⁻¹.

B2: GBD008-hS019-4 (antibody, V domains shown)
VH: EVQLLESGGGLVQPGGSLRLSCAASGFTFSSYTMAWYRQAPGKEREVVAGISRSGGTTNYGDSVKGRFTISRDNSKNTLYLQMNSLRAEDTAVYYCRAVSDYWGQGTLVTVSS
notes: Humanized heavy chain-only antibody (VHH-Fc), no light chain
For the molecule B2, the binding result in assay [1] was “no binding”. Also, in assay [2], the Kd was found to be 0.236 nM, the koff amounted to 7.13e-05 s⁻¹ and the kon was determined as 302000 M⁻¹ s⁻¹.

B3: GBD008-hS005-3 (antibody, V domains shown)
VH: EVQLVESGGGLVQPGGSLRLSCAASGRTASSNAMAWVRQAPGKEREFVSAISATGGLTAYADSVKGRFTISRDNSKNTLYLQMNSLRAEDTAVYYCAVGRERWYLRHTENEYDYWGQGTLVTVSS
notes: as for B2
B3: the binding result in assay [1] was “no binding”. In addition, in assay [2], the Kd came out at 0.524 nM, the koff was found to be 9.91e-05 s⁻¹ and the kon was 189000 M⁻¹ s⁻¹.

B4: GBD008-hS005-3-2 (antibody, V domains shown)
VH: EVQLVESGGGLVQPGGSLRLSCAASGRTASSNAMAWFRQAPGKEREFVSAISATGGLTAYADSVKGRFTISRDNSKNTLYLQMNSLRAEDTAVYYCAVGRERWYLRHTENEYDYWGQGTLVTVSS
notes: as for B2
For B4, the binding result in assay [1] was “no binding”. Moreover, in assay [2], the dissociation constant (Kd) was 0.53 nM, the koff was 0.000114 s⁻¹ and the kon was found to be 214000 M⁻¹ s⁻¹.

B5: GBD008-S004 (antibody, V domains shown)
VH: EVQLVESGGGLVQAGGSLRLSCLASGRTFSSYDMGWFRQAPGKEREFVAAISWGGVNTYYADSVKGRFTISRDNAKNTVYLQMNSLKPEDTAVYYCARGSAPYSSSRSSAQETYAQWGQGTQVTVSS
notes: Heavy chain-only antibody (VHH-Fc), no light chain
On to B5, for which the binding result in assay [1] is “no binding”. Further, in assay [2], the Kd turned out to be 28.9 nM, the koff came out at 0.00501 s⁻¹ and the kon is 173000 M⁻¹ s⁻¹.

B6: GBD008-hS004-5 (antibody, V domains shown)
VH: EVQLVESGGGLVQPGGSLRLSCAASGRTFSSYDMGWFRQAPGKEREFVAAISWGGVNTYYADSVKGRFTISRDNAKNTLYLQMNSLRAEDTAVYYCARGSAPYSSSRSSAQETYAQWGQGTLVTVSS
notes: as for B2
In the case of B6, the binding result in assay [1] is recorded as “no binding”. Also, in assay [2], the Kd was 27.9 nM, the koff was determined as 0.00671 s⁻¹ and the kon was found to be 241000 M⁻¹ s⁻¹.
